Columns and labels:
Test in all cases: ADCC activity, chromium-51 release
Assay type in all cases: cell-based, human
[1] = tested on: ACHN; details: renal cancer cell line
Experimental: (§1) The above-selected anti-CAPRIN-1 monoclonal antibodies #1 to #11 were evaluated for their cytotoxic activities against cancer cells (ADCC activity). Hybridomas producing the monoclonal antibodies #1 to #11 were each cultured using hybridoma SFM medium (Invitrogen). The thus obtained supernatant was purified using Hitrap ProteinA Sepharose FF (GE HealthCare), replaced with PBS(−), and then filtered through 0.22 μm filter (Millipore). The obtained filtrates were used as antibodies for assay. The human breast cancer cell line MDA-MB-157 (10^6 cells) was collected in a 50-ml centrifuge tube, to which 100 μCi chromium(Cr)-51 was then added, and incubated at 37° C. for 2 hours. Subsequently, the cells were washed 3 times with RPMI1640 medium containing 10% FBS, and then dispensed into each well of a 96-well V-bottom plate at 10^3 cells per well. The thus obtained cells are used as target cell. The above purified antibodies (1 μg each) were added to the cells. Separately, mouse lymphocytes separated from the mouse spleen were further added (2×10^5 cells) and then cultured under conditions of 37° C. and 5% CO2 for 4 hours. After culture, the amount of chromium(Cr)-51 released from cytotoxically impaired tumor cells in a culture supernatant was measured, so that the ADCC activity of each anti-CAPRIN-1 antibody against cancer cells was calculated. […] On the other hand, similar procedures were performed using the monoclonal antibodies (which were prepared in Example 2) reactive with the CAPRIN-1 protein itself, but not reactive with the surface of cancer cells, no cytotoxic activity was observed (see FIG. 1). […] Similarly, the anti-CAPRIN-1 antibodies were examined for ADCC activity against other human cancer cell lines including glioma cell lines (T98G and U373), lung cancer cell lines (A549 and QG56), renal cancer cell lines (Caki-1 and ACHN), a uterine cervix cancer cell line (SW756), a bladder cancer cell line (T24), an esophageal cancer cell line (KYSE180), gastric cancer cell lines (MNK28 and MNK45), a colorectal cancer cell line (SW480), a leukemia cell line (AML5), and a lymphoma cell line (Ramos).

[2] = tested on: MNK45; details: gastric cancer cell line
Experimental: as §1

[3] = tested on: Ramos; details: lymphoma cell line
Experimental: as §1

[4] = tested on: T98G; details: glioma cell line
Experimental: as §1

[5] = tested on: SW756; details: uterine cervix cancer cell line
Experimental: as §1

[6] = tested on: SW480; details: colorectal cancer cell line
Experimental: as §1

B1: monoclonal antibody #9: mouse anti-CAPRIN-1 monoclonal antibody; heavy chain variable region SEQ ID NO: 103, light chain variable region SEQ ID NO: 107 (antibody, listed as Mus musculus, V domains shown)
VH: PRASLGVSETLLCTSGFTFTDYYMSWVRQPPGKALEWLGFIRNKANGYTTEYSASVKGRFTISRDNSQSILYLQMNTLRAEDSATYYCARANWAFDYWGQGTTVTVSSK
VL: SGDRVSLSCRASQSISNYLHWYQQKSHESPRLLIKYASQSISGIPSRFSGSGSGTDFTLSINSVETEDFGMYFCQQSNSWPYTFGGGTKLEIKQ
ADCC activity against ACHN [1]: ≥ 14% | ADCC activity against MNK45 [2]: ≥ 10% | ADCC activity against Ramos [3]: ≥ 10% | ADCC activity against T98G [4]: ≥ 12% | ADCC activity against SW756 [5]: ≥ 16% | ADCC activity against SW480 [6]: ≥ 17%

— US9180187B2, “Medicament for treating and/or preventing cancer” (TORAY INDUSTRIES, INC., priority 2010, dated 2015)
